B1: mouse 4-1BB.Fc CRD4 mutant (amino acids 118–187) (Fc fusion, UniProt P20334 118-187, looked up)
chain: TCSLGTFNDQNGTGVCRPWTNCSLDGRSVLKTGTTEKDVVCGPPVVSFSPSTTISVTPEGGPGGHSLQVL
B2: mouse 4-1BB.Fc, full-length extracellular 4-1BB (CRD1–4, amino acids 24–187) fused to human IgG1 Fc (Fc fusion, UniProt P20334 24-187, looked up)
chain: VQNSCDNCQPGTFCRKYNPVCKSCPPSTFSSIGGQPNCNICRVCAGYFRFKKFCSSTHNAECECIEGFHCLGPQCTRCEKDCRPGQELTKQGCKTCSLGTFNDQNGTGVCRPWTNCSLDGRSVLKTGTTEKDVVCGPPVVSFSPSTTISVTPEGGPGGHSLQVL
B3: human 4-1BB.Fc CRD4 mutant (amino acids 119–186) (Fc fusion, UniProt Q07011 119-186, looked up)
chain: DCCFGTFNDQKRGICRPWTNCSLDGKSVLVNGTKERDVVCGPSPADLSPGASSVTPPAPAREPGHSPQ

Assays:
[1] = target: recombinant mouse Galectin-9 (mouse, UniProt O08573 1-353); experiment: SPR
Sequence of recombinant mouse Galectin-9 (O08573 whole entry): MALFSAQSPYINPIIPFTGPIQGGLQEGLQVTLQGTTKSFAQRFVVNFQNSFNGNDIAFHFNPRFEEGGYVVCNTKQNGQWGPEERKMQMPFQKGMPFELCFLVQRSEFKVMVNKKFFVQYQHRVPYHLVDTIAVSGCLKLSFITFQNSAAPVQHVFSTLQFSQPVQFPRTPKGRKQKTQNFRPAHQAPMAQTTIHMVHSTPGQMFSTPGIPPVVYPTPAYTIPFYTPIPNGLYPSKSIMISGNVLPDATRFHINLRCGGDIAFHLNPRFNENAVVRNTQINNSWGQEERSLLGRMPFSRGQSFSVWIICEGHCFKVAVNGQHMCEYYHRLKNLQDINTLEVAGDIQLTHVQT

[2] = target: recombinant human Galectin-9 (human, UniProt O00182 1-355); experiment: SPR
Sequence of recombinant human Galectin-9 (O00182 whole entry): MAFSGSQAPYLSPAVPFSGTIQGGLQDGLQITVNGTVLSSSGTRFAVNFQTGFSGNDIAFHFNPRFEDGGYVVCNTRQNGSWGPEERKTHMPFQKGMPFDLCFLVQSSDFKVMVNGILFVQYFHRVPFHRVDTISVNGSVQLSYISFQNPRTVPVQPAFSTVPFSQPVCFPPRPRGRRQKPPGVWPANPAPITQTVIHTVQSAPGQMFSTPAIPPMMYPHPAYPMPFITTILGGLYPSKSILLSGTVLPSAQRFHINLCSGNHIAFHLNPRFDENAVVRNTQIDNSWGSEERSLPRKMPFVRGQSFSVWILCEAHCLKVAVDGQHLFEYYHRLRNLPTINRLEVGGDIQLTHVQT

| Binder | Kd [1] | Kd [2] |
| --- | --- | --- |
| B1 | ~18 nM |  |
| B2 | ~11 nM |  |
| B3 |  | ~35 nM |
